Values of other authors in publication PMC4278352.

Target: PikAIII docking domain (Streptomyces venezuelae) (UniProt Q9ZGI3)
Sequence of UniProt Q9ZGI3 (Q9ZGI3 1-34): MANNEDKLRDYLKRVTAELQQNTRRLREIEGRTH

## PikAII docking domain (from UniProt Q9ZGI4)
  Kd: 5 µM
